Sequences and labels used below:
B1: D1IgD2FasL (ligand, human)
chain: QKKGAPHDLKCVTNNLQVWNCSWKAPSGTGRGTDYEVCIENRSRSCYQLEKTSIKIPALSHGDYEITINSLHDFGSSTSKFTLNEQNVSLIPDTPEILNLSADFSTSTLYLKWNDRGSVFPHRSNVIWEIKVLRKESMELVKLVTHNTTLNGKDTLHHWSWASDMPLECAIHFVEIRCYIDNLHFSGLEEWSDWSPVKNISWIPDSQTKVFPQDKVILVGSDITFCCVSQEKVLSALIGHTNCPLIHLDGENVAIKIRNISVSASSGTNVVFTTEDNIFGTVIFAGYPPDTPQQLNCETHDLKEIICSWNPGRVTALVGPRATSYTLVESFSGKYVRLKRAEAPTNESYQLLFQMLPNQEIYNFTLNAHNPLGRSQSTILVNITEKVYPHTPTSFKVKDINSTAVKLSWHLPGNFAKINFLCEIEIKKSNSVQEQRNVTIKGVENSSYLVALDKLNPYTLYTFRIRCSTETFWKWSKWSNKKQHLTTEASQKELAELRESTSQMHTASSLEKQIGHPSPPPEKKELRKVAHLTGKSNSRSMPLEWEDTYGIVLLSGVKYKKGGLVINETGLYFVYSKVYFRGQSCNNLPLSHKVYMRNSKYPQDLVMMEGKMMSYCTTGQMWARSSYLGAVFNLTSADHLYVNVSELSLVNFEESQTFFGLYKL
B4: Recombinant Fas-Fc (R&Dsystems) (Fc fusion, UniProt P25445 26-173, looked up)
chain: QVTDINSKGLELRKTVTTVETQNLEGLHHDGQFCHKPCPPGERKARDCTVNGDEPDCVPCQEGKEYTDKAHFSSKCRRCRLCDEGHGLEVEINCTRTQNTKCRCKPNFFCNSTVCEHCDPCTKCEHGIIKECTLTSNTKCKEEGSRSN
notes: not shown: Fc part
B5: D2FasL (ligand, human)
chain: TPQQLNCETHDLKEIICSWNPGRVTALVGPRATSYTLVESFSGKYVRLKRAEAPTNESYQLLFQMLPNQEIYNFTLNAHNPLGRSQSTILVNITEKVYPHTPTSFKVKDINSTAVKLSWHLPGNFAKINFLCEIEIKKSNSVQEQRNVTIKGVENSSYLVALDKLNPYTLYTFRIRCSTETFWKWSKWSNKKQHLTTEASQKELAELRESTSQMHTASSLEKQIGHPSPPPEKKELRKVAHLTGKSNSRSMPLEWEDTYGIVLLSGVKYKKGGLVINETGLYFVYSKVYFRGQSCNNLPLSHKVYMRNSKYPQDLVMMEGKMMSYCTTGQMWARSSYLGAVFNLTSADHLYVNVSELSLVNFEESQTFFGLYKL
notes: domain: D2

One assay concerns the target HLA-pfFasL (human). In words: cell-based or functional assay.
The target of assay [1] is T1, Fas (CD95/APO-1) on Jurkat cells (human, UniProt P25445 26-335).
T1 sequence (looked up): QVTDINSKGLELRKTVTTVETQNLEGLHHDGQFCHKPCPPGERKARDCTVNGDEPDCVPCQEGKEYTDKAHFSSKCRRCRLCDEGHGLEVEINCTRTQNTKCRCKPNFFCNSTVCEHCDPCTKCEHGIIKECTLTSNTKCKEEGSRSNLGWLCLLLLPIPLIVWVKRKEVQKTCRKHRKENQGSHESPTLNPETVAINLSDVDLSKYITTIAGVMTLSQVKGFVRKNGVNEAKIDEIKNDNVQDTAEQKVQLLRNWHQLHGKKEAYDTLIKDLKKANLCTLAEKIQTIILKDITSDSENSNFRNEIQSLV
Kind of assay: cell-based or functional assay.

Assay [2] has as its target T1, Fas (CD95/APO-1) on Jurkat cells. Kind of assay: cell-based or functional assay. The source holds these as a separate data set.
Assay [3] shares this target. In words: cell-based or functional assay. The source holds these as a separate data set.
In assay [4] the target is B4. Kind of assay: SPR (BIAcore 3000), Fas-Fc immobilised on CM5 chip. Here is the method: (§1) The experiments were carried out on a BIAcore 3000 optical biosensor (GE healthcare, Chalfont, UK). The FasL chimeras were produced as COS supernatants in Opti-MEM medium, concentrated 100 times, dialyzed against PBS and sterilized by filtration. Recombinant Fas-Fc (R&Dsystems, Minneapolis, Minn.) was covalently coupled to a carboxymethyl dextran flow cell (CM5, BIAcore) following the manufacturer's recommendations. The level of immobilization was 2,000 resonance units (RU). Binding of the FasL chimeras was assayed at concentrations ranging from 0.2 to 100 nM for IgFasL, 0.2 to 44 nM for cFasL, 0.2 to 37.5 nM for D2FasL, and 0.25 to 8 nM for D1IgD2FasL, in Hepes-buffered saline, at a 30 μl/min flow rate. Association was monitored for 5 min before initiating the dissociation phase for another 11 min with Hepes-buffered saline. The flow cell was regenerated with 4M MgCl2. The sensorgrams were analyzed using the BIAeval 4.1 software (BIAcore). The background of the Opti-MEM medium was at 30 RU.
(§2) The affinity of the FasL chimeras for Fas was measured using the surface plasmon resonance Biacore® method, against recombinant Fas-Fc immobilized on a chip. IgFasL, D2FasL, D1IgD2FasL and sFasL as a control, were produced as supernatants in COS cells cultured in serum-free medium, concentrated 100 times, and dialysed against PBS.
(In general: SPR reads the build-up and loss of mass on a sensor chip optically.)

In assay [5] the target is B4. In words: SPR (BIAcore), Fas-Fc immobilised on chip, FasL construct as analyte; reference cFasL. Here is the method: as §1, §2
For assay [6], the target named is B4. In words: SPR (BIAcore 3000), Fas-Fc immobilised on CM5 chip, FasL construct as analyte. On the procedure:
as §1, §2

A further assay concerns the target T2, cleaved FasL (cFasL) (human, UniProt P48023 127-281).
T2 construct: range 127-281; Supernatant of COS cells transfected with wild-type FasL; also called spontaneously cleaved membrane FasL; metalloprotease-cleaved FasL
T2 sequence (looked up): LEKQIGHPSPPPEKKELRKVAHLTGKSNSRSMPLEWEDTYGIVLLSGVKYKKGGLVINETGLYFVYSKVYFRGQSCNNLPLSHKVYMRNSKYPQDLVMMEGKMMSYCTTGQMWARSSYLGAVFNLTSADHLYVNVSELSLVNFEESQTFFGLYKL
Described as above. On the procedure:
as §1, §2

For the assay “D1IgD2FasL”, the target named is B1. The description is as above. Here is the method:
as §1, §2

The assay “D2FasL” addresses B5. Described as above. Here is the method: as §1, §2

Where “and” joins values, the source holds several entries; their conditions need not be identical. Equal entries are not always repeated. Where two headings read alike, the source gives them in different places. Where only a bound is given, the exact number is not on record here.

For anti-Flag mAb (clone M2) (antibody), in the assay with HLA-pfFasL (human), the enhancement of the cytotoxicity of HLA-pfFasL on CD32+ L-cells by pre-formed immune complexes was determined as 2.5 fold.

On to “Flag-tagged sFasL (sfFasL) (from UniProt P48023 108-281) (ligand)”, for which, in [1], the cytotoxicity EC50 on the Jurkat cell line (MTT assay) was greater than 3 µg/mL and the cytotoxicity on Jurkat cells, activity against pfFasL (fold less active than pfFasL) is greater than 5000.

Turning to “anti-β2 microglobulin mAb (clone B2M-01) (antibody)”, in the assay with HLA-pfFasL (human), the enhancement of the cytotoxicity of HLA-pfFasL on CD32+ L-cells by pre-formed immune complexes worked out at 2.5 fold.

For the molecule “Anti-human Fas agonistic mAb 7C11 (IgM) (antibody)”, the concentration required to kill 50% of the Jurkat cells in assay [1] came to 2 ng/mL.

In the case of B1, the “cell death of Jurkat cells (MTT assay), potency against IgFasL” value in assay [2] was 125 fold less potent than IgFasL.

B2: polymeric Flag-tagged soluble FasL (pfFasL) (ligand, not shown: small tags and cut ends)
chain: IPDSQTKVFPQDKVILVGSDITFCCVSQEKVLSALIGHTNCPLIHLDGENVAIKIRNISVSASSGTNVVFTTEDNIFGTVISRALQKELAELRESTSQMHTASSLEKQIGHPSPPPEKKELRKVAHLTGKSNSRSMPLEWEDTYGIVLLSGVKYKKGGLVINETGLYFVYSKVYFRGQSCNNLPLSHKVYMRNSKYPQDLVMMEGKMMSYCTTGQMWARSSYLGAVFNLTSADHLYVNVSELSLVNFEESQTFFGLYKL
Turning to B2, the “cytotoxicity EC50 on the Jurkat cell line (MTT assay)” value in assay [3] is 0.6 ng/mL and 15.5 pM.

B3: IgFasL (ligand)
chain: IPDSQTKVFPQDKVILVGSDITFCCVSQEKVLSALIGHTNCPLIHLDGENVAIKIRNISVSASSGTNVVFTTEDNIFGTVISRALQKELAELRESTSQMHTASSLEKQIGHPSPPPEKKELRKVAHLTGKSNSRSMPLEWEDTYGIVLLSGVKYKKGGLVINETGLYFVYSKVYFRGQSCNNLPLSHKVYMRNSKYPQDLVMMEGKMMSYCTTGQMWARSSYLGAVFNLTSADHLYVNVSELSLVNFEESQTFFGLYKL
notes: also called pFasL; polymeric FasL
By Kd is commonly meant the constant that tells how readily two partners part at equilibrium. By koff is commonly meant the rate constant with which the complex falls apart. One may read the kon as the rate constant with which the complex forms. B3: the “fold difference of Kd against cFasL” value in [4] was found to be 6 fold. In addition, the “fold affinity against cFasL (Kd ratio)” value in [5] was 6 fold. Also, in [6], the Kd was 11.6 nM, the koff turned out to be 0.00041 s⁻¹ and the kon came to 25000 M⁻¹ s⁻¹.

In the assay with cleaved FasL (cFasL), B4 displayed a Kd of 69.4 nM, a koff of 0.0059 s⁻¹ and an association rate constant (kon) of 84000 M⁻¹ s⁻¹. Besides, in the assay with D1IgD2FasL, binding was characterised by a dissociation constant (Kd) of 25.6 nM, the off-rate (koff) turned out to be 0.0033 s⁻¹ and the association rate constant (kon) came out at 130000 M⁻¹ s⁻¹. In the assay with D2FasL, binding was put at a Kd of 38.5 nM, the koff was determined as 0.006 s⁻¹ and the kon came out at 160000 M⁻¹ s⁻¹.

Consider B5, for which the “fold difference of Kd against cFasL” value in [4] came out at 2 fold. For the same molecule, in assay [5], the “fold affinity against cFasL (Kd ratio)” value worked out at 2 fold. In addition, the “cell death of Jurkat cells (MTT assay), potency against IgFasL” value in assay [2] was 12.5 fold less potent than IgFasL.

B6: soluble FasL (sFasL) (ligand)
chain: QKELAELRESTSQMHTASSLEKQIGHPSPPPEKKELRKVAHLTGKSNSRSMPLEWEDTYGIVLLSGVKYKKGGLVINETGLYFVYSKVYFRGQSCNNLPLSHKVYMRNSKYPQDLVMMEGKMMSYCTTGQMWARSSYLGAVFNLTSADHLYVNVSELSLVNFEESQTFFGLYKL
Regarding B6, the “cytotoxicity EC50 on the Jurkat cell line (MTT assay)” value in [3] is greater than 3 µg/mL. The “cytotoxicity on Jurkat cells, activity against pfFasL” value in assay [2] is ≥ 5000 fold less active than pfFasL.

The values above are taken from patent US20150044237A1 (CENTRE NATIONAL DE LA RECHERCHE SCIENTIFIQUE, published 2015).
